Experiment: yeast display, Sf9 membrane polyspecificity reagent, FACS + sequencing; frameworks hold sequencing errors
In short: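 After 36–48 hours of galactose induction, yeast (Saccharomyces cerevisiae BJ5465) displaying a synthetic nanobody library were stained at 4 °C for 1 hour with 10% biotinylated, detergent-solubilized Sf9 membrane reagent. Streptavidin microbeads enriched the stained cells before FACS sorting into low and high (top ~1%) gates on anti-HA and streptavidin fluorescence. Each clone's polyreactivity label reflects its gate of origin.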

Sequence | polyreactivity (PSR sort gate)
QVQLVESGGGLVQAGGSLRLSCAASGSIFFRNAMGWYRQAPGKERELVATIDWSGGYTDYADTVKGRFTISRDNAKNTVYLQMNSLKPEETAVYYCATGRYDRYYNFWYYYWGQGPQVTVSS | high polyreactivity
QVQLVESRGGLVQAGGSLRLSCAASGLIFGFNTMGWYRQAPGKERELVAAITSGGGSTYYADSVKGRFTISRDNAKNTVYLQMNSLKPEDTAVYYCNAGGGRWRARQWHDYWGQGTQVTVSS | low polyreactivity
QVQLVESGGGLVQAGGSLRLSCAASGSTFRGNDMGWYRQAPGKERELVASIDWSGGSTYYADSVKGRFTISRDNAKNTVYLQMNSLKPEDTAVYYCAADTSYWYDYYIDYVGYYYWGQGTQVTVSS | high polyreactivity
QVQLVESGGGLVQAGGSLLLSWAASGRSFKYNAMGWDRQAPGKERELVAAISGSGGRTYYADSVKGRFTISRDNAKNTVYLQMNSLIPEDTAVYYCNARYVLYKPDYHRGGRMGYWGQGTQVTVSS | high polyreactivity
QVQLVETVGGLDQAGGSLLLSCAASGRIFWENALGWYRQAPGKERELVAAISDSVVITYYADSVKGRFTISRDNAKNTVYLQMNSLKPEDTAVYDCAADKRGSVYLSSFWMDYWGQGTQVTVSS | low polyreactivity
QVQLVESGGGLVQAGGSLRLSCAASGRTFDHNAMGWYRQAPGKERELVAAITWSGGITDYADSVKRPFTISRDNAKNTVYLQMNSLKPEDTAVCGQGTQVTVSS | low polyreactivity
QVQLVESGGGLVQAGGSLRLSCAASGLIFRPYAMGWYRQAPGKERELVAALTSGGSTDYADSVKGRFTISRDNAKNTVYLQMNSLKPEDTAVYYCNADIYPHDGYPWQGDYDYWGQGTQVTVSS | low polyreactivity
QVQLVESGGGLVQAGGSLRLSCAASGSTIWPYTMGWYRQAPGKERELVAAITLRGGTTYYADSVKGRFTISRDNAKNTVYLQMNSLKPEDTVVYYCNATSGNPASTAWMNYWGQGTQVTVSS | low polyreactivity
QVQLVESGGALVQAGGRLRLSCAASGRTFRAYAMGWYRQAPGKERELVAAITSGGSTYYADSVKGRFTISRDNAKNTVYLQMNSLKPEDTEVYYCNRRGWSRTHQYDYWGQGTQVTVSS | high polyreactivity
HVQLVESGGGLVQAGGSLRLSFAASASIYQFYPMGWYRPAPGKERELVAGINNSGGSTYYADSVKGRFTISRDNAKNTVYLQMNSLKPEDTAVYYCMARSRYDTGRQRGYDYWGQGTQVTVSS | low polyreactivity
QVQLVESGGGLVQAGGSLRLSCAASGRIFPFYDMGWYRQAPGKEREFVARITLSGGSTYYADSVMGRFTISRDNAKNTVNLQMNSLKPEDTSVYYCSADRTSWSVLDFDYWGQGTQVTVSS | low polyreactivity
QVQLVESGGGLVQAGGSLRLSCAASGFTLYRNAMGWNRQAPGKERELVAAISSSGGRTYYADSVKGRFTISRDNAKNTVYLQMNSLKPEDTAVYYCAADFYRYGPQLGYWGQATQVTVSS | high polyreactivity
QVQLVESGRGLVQAGGSLRLSCAASGRTFYLYAMVWNIQAPGKERELVAAITFNGGSTYYADSVKGRFTISRDNAKNTVYLQMNSLKPEDTAVYYCAARLSKRSGYYYWGQVTQVTVSS | high polyreactivity
QVHLVESGGGLVQAGGSLSLSCAASGLNFRTYAMGWYRQAPGKERELVAAISSSGGSTYYADSVKGRFTISRDNAKNTVYLQMNSLKPEDTAVYYCNVGSRRRRYLDRYEYWGQGTQVTVSS | high polyreactivity
QDQIVESGGGLVQAGGSLRLSCAASGSTFQANAMGWYRQAPGKERELVAAISRSGGSTYYADSVKGRFTISRDNAKNTVYLQMNSLKPEDTAVFYCAADYEYSGYGYWGQGTQVTVSS | high polyreactivity
QVQLVESGGGLFQAGGSLRLSCAASGSIFSWNDMGWYRQAPGKERELVAAINWNGGSTYYADSVKGRFTISRDNEKNSVYLQMNSLKPEYSEVYYCAAERSLYYVYSREYWGQGTQVTVSS | low polyreactivity
QVQLVESGGGLVQAGGSLRLSCAASGRIFDIYAMGWYRQAPGKERELVAAITTRGGSTYYADSVKGRFTISRDNAKNNVYLQMNSLKPEDTAVYYCAAAYSEDYRVIFYYWGQGTQVTVSS | low polyreactivity
QVQLVESGGGLVQAGGSLRLSCAASGSIFATNAMGWYRQAPGKERELVASISSGGGSTYDADSVKGRFTLSRDNAKNTVYLQMNSLKPEDTAVYYCARRIGQGSRPYWLETWRYPYDYWGQGTQVTVSS | low polyreactivity
QVQLVESGGGLVQAGGSLRISCAASGSTFDYNAMGWDRQAPGKERELVAVISQSGTRTYYADSVKGRFTISRDNAKNTVYLQMNSLKPEDTAVYYCAARSPYSYRYDYWGQGTQVTVSS | high polyreactivity
QVQLVESGGGLVQAGGSLRLSCAASGRIFYRYAMGWYRQAPGKERELVAAIRYSGGRTYYADSVKGRFTISRDNAKNTVYLQMNSLKPEDTAVYYCAADGQWYYAPFRGGDYENDYWGQGTQVTVSS | low polyreactivity
QVQLVESGGGLVQAGGSLRLSCAASGFIFKLYAMGWYRQAPGKERELVAAIRSSGGSTYYADSVKGRFTISRDNAKNTVYLQMNSLKPEDTAVYYCAKVGGRVRYNYWGQGTQVTVSS | high polyreactivity
QVQLEESGGGLVQAGGSLRLSCAASGFIFYWYAMGWYIKAPGKERELVAAITRSGGRTYYADSVKGRFTFSRDNAKNTVYLQMNRLKPEDTAVYYCNAGYWLSPYKFGYWGQGTQVTVSS | high polyreactivity

Sequence | polyreactivity (PSR sort gate)
QDQLVESGGGLVQAGGSLRLSSAGSGSIFFSYAMGWYRQAPGKEREFVAAINSDDASTYADSVKGRFTISRDNAKNTVYLQMNSLKPEDTAVYYCAASFLWSWYDYWGQGTQVTVSS | low polyreactivity
QVQLVESGGGLVQAGGSLRLSCAASGRIFVQYDMGWYRQAHGKERELVAAITGGGGSTYYADSVKGRFTISRDNAKNTVYLQMNSLKPEDTAVYYCAADQDVYDFTGYDYWGQGTQVTVSS | low polyreactivity
QVQLVESGGGLVQAGGSLRLSCAASGLTFWYYAMGWYRQAPGKERELVAAISWSGGRTSYADSVKGRFTISRDNAKNTVYLQMNSLKPEDTAVYYCAADKDFRTGEFEYDYWGQGTQLTVSS | high polyreactivity
QVKLVESGGGLVQAGGRLRLSCAASGFTCNVYAMGLYRQAPGKERELVADISGTGGSTYYADSVKGRFTISRDNAKNTVYLQMNSLKPEDTAVYYCSSGTRNFDFWGQGTQVTVSS | high polyreactivity
QVQLEESGGGLVQAGGSLRLSSAASGGIFDVSHMGWYRQAPGKERELVAAISENGGSTYYADSVKGRFTISRDNAKNTVYLLMNSLKPADTAVYYCAADYVSLSVFSYWAWYDYWGHGTQVTVSS | low polyreactivity
KVQLVESVGGLVQAGGSLRLSCAASGFTFCRNTMGWYRQAPGKEREFVAAITVTGGSTYYADSVKGRFTISRDNAKNTVYLQMNSLKPEDTAVYYCAAGWTSAYVNYDYWGQGTQVTVSS | low polyreactivity
QVQLVESGGGLVQAGGSLRLSCAASGSTSRKYTMGWYRQAPGKERELVATISWSGGSTYYADSVKGRFTISRDNAKNTVYLQMNSLKPEDTAVYYCAAATKVRNLGSFESPGPEVDYWGQGTQVTVSS | high polyreactivity
QVQLVESGRGLVQAGGSLPLSSASSGLTFKTYAMGRYRQAPGKVSELVAAITSGGTSTYYADSVKGRFTISRDNAKNTVYFQMNSLKPEDTAVYYCAARYYFSYSVGYYYWGQGTQVTVSS | high polyreactivity
QVQLVESGGGLVQAGGSLRLSCAASGSIFSEYAMGWYRQAPGKERELVAAISKSTGRTYYADSVKGRFTISRDNAKNTVYLQMNSLKPEDTAVYYCNAVRRAFIASYDYWGQGTQVTVSS | high polyreactivity
QVQLVESAGGLVQAAGSLRLSCAASGSIFSTNAMGWYRQAPGKERELVAAITYRGRTFYADSVKGRFTISRDNAKNTVYLQMNSLKPEDTAVYYCNAVGISWFGYLKAYVYWGKGTQVTVSS | high polyreactivity
QVQLVDSGGGLVQAGGSLRLSCAASGRTVRYYTMGWYRQAPGKERELVAAISNAASTNYADSVKGRFTISRDNAKNTVYLQMNSLKPEDTAVYYCNAYLHYRAGHPRGYHNRYYYWGQGTQVTVSS | high polyreactivity
QVQLVESGGGLVQAGGSLRISCAASGITLNVYAMGWYRQAPGKERELVAAISYNGGRTYYADSVKGRFTISRDNAKNTVYLQMNSLKPEDTAVYYCAAQWPWGPYDYWGQGTQVTVSS | high polyreactivity
QVQLVESGGGLVQAGGSLRLSCAASGSTLGANAMGWYRQAPGKERELVAAISISDGDTYYADSVKGRFTISRDYAKNTVYLQMNSLKPEDTAVYYCAADYWFQYRWYDYWGQGTQVTVSS | high polyreactivity
QVQLVESGAGLVQAGGSLRLSCAASGRTLKTYVMGWYRQAPGKERELVAAITCGGRTYYADSVKGRFTISRDNAKNTVYLQMNSLKPEDTAVYYCNAQLYWYRYWYLFDNTSFDYWGQGTQVTVSS | low polyreactivity
QVQLVESGGGLVQAGGSLRLICAASGSTFGEYAMGWYRQAHGKERELVAVITSDDNTYYADSVKGRFTISRDNAKNTVYLQMNSLKPEDTAVYYCAARGYVLARSQQWRREYYWGQGTQVTVSS | high polyreactivity
QVQLVESGGGLVQAGGSLRLSCAASGFIFYYYAMGWYRQAPGKERELVAAISRSGGSTYYADSVKGRFTISRDNAKNTVYLQMNSLKPEDTAVYYCAVYGYYALTHWEYDYWGQGTQVTVSS | high polyreactivity
QVQLVESGGGLVQAGGSLRLSCAASGYTFNFNAMGWYRQAPGKERELVAAITWNGGRTYYADSVKGRFTISRDNAKNTVYLQMNSLKPEDTAVYYCAARSYQRPSDTRYDYWGQGTQVTVSS | high polyreactivity
QVQLVESGGGLVQAGGSLRLSCAASGITFYWYTMGWYRQAPGKERELVADIEGDGGSTYYADSVKGRFTISRDNAKNTVYLQMNSLKPEDTAVYYCAAQVWPWGYDYWGQGTQVTVSS | high polyreactivity
QVQLVESGGGLVQAGGSLRLSCAASGSTFWWYAMGWYRQAPGKEREFVAAINWRGSSTYYADSVKGRFTISRDNAKNTVYLQMNSLKPEDTSVYYCNAVLRYGYAGMDYWGQGTQVTVSS | high polyreactivity
QVQLVESGGGLVQAGGSLRLSCAASGLILYSYAMGWYRQAPGKERELVADISSGGITNYADSVKGRFTISRDNAKNTVYLQMNSLKPEDTAFYYCNADSYGGNLYIWEYYYWGQGTQVTVSS | low polyreactivity
QVQHVESGGALVQAGGSLRLSCAASGLIYALSAMGWDRQAPGKEMELVAAIDWSGGSTYYADSVKGRFTISRDNAKNTVYVQMNCLKPEDTAVYYCAADISSSPGNDYWGQGTQLTVSS | high polyreactivity
